Values quoted from earlier work in patent publication US10822386B2, “Insulin analogues with enhanced stability and reduced mitogenicity” (CASE WESTERN RESERVE UNIVERSITY, priority 2014, dated 2020).

Columns and labels:
insulin receptor = insulin receptor (Homo sapiens, UniProt P06213); details: versus wild-type insulin
[1] = substitution of His^B10 by Asp, versus wild-type
Sprague-Dawley rats = details: chronic treatment, relative to wild-type insulin
[2] = tested on: neoplastic cell lines (including a cell line derived from a human breast cancer)

Question: With Asp^B10-insulin as the substance, how does the “affinity for the insulin receptor” value (insulin receptor) read?
Answer: Its value is “enhances the affinity”.

Question: What about the “thermodynamic stability of the zinc-free insulin monomer” value [1] of the same substance?
Answer: The value was “augment the thermodynamic stability”.

Question: What about the “incidence of mammary tumors” value (Sprague-Dawley rats) of the same substance?
Answer: Its value is “excess incidence of mammary tumors”.

Question: And the “potency to stimulate lipogenesis” value (isolated adipocytes)?
Answer: Its value is “augments in parallel its potency”.

Question: What about the “mitogenicity in cell culture” value [2] of the same substance?
Answer: The value was “increased mitogenicity”.
